B1: KLKERNREL (peptide)
peptide: KLKERNREL
B2: VLLPRLVSC (peptide)
peptide: VLLPRLVSC
B3: FAFRKEAL (peptide)
peptide: FAFRKEAL
B4: MYKMKKPI (peptide)
peptide: MYKMKKPI
B5: TSMPRSSAM (peptide)
peptide: TSMPRSSAM
B6: YLLEKSRVI (peptide)
peptide: YLLEKSRVI
B7: RWEKTDLTY (peptide)
peptide: RWEKTDLTY
B8: VMEQSAGIMY (peptide)
peptide: VMEQSAGIMY
B9: LLDEGAMLLY (peptide)
peptide: LLDEGAMLLY
B10: SPVTSVHGGTY (peptide)
peptide: SPVTSVHGGTY
B11: VLLDEGAMLLY (peptide)
peptide: VLLDEGAMLLY
B12: DMDEEIEAEY (peptide)
peptide: DMDEEIEAEY
B13: FVDNQYWRY (peptide)
peptide: FVDNQYWRY
B14: NVTMKVVSVLY (peptide)
peptide: NVTMKVVSVLY
B15: TVTGAEQIQY (peptide)
peptide: TVTGAEQIQY
B16: ETIRSVGYY (peptide)
peptide: ETIRSVGYY
B17: QLDSNRLTY (peptide)
peptide: QLDSNRLTY
B18: RYSDSVGRVSF (peptide)
peptide: RYSDSVGRVSF
B19: VYTPTLGTL (peptide)
peptide: VYTPTLGTL
B20: KYVKVFHQF (peptide)
peptide: KYVKVFHQF
B21: RFTTMLSTF (peptide)
peptide: RFTTMLSTF
B22: RYGPVFTV (peptide)
peptide: RYGPVFTV
B23: KYVAELSLL (peptide)
peptide: KYVAELSLL
B24: SYSDLHYGF (peptide)
peptide: SYSDLHYGF
B25: IYSPQFSRL (peptide)
peptide: IYSPQFSRL
B26: SYNEHWNYL (peptide)
peptide: SYNEHWNYL
B27: TAYMVSVAAF (peptide)
peptide: TAYMVSVAAF
B28: VYTFLSSTL (peptide)
peptide: VYTFLSSTL
B29: KYEKIFEML (peptide)
peptide: KYEKIFEML
B30: VFVSFSSLF (peptide)
peptide: VFVSFSSLF
B31: VYNHTTRPL (peptide)
peptide: VYNHTTRPL
B32: RYLAVVHAVF (peptide)
peptide: RYLAVVHAVF
B33: VYHDDKQPTF (peptide)
peptide: VYHDDKQPTF
B34: LYQPRASEM (peptide)
peptide: LYQPRASEM
B35: SFAPRSAVF (peptide)
peptide: SFAPRSAVF
B36: FYFPTPTVL (peptide)
peptide: FYFPTPTVL
B37: KYPVHIYRL (peptide)
peptide: KYPVHIYRL
B38: SYFRGFTLI (peptide)
peptide: SYFRGFTLI

In one experiment the target is T1, human recombinant HLA-B*08:01 and b2m (human).
T1 construct: expressed in E. coli and purified; stability of the peptide-MHC complex read as b2m associated with the heavy chain over time at 37 C
Briefly: pMHC dissociation assay at 37 C; mean half-life grade. The protocol:
Peptide-MHC stability assays for HLA-B*08:01 peptides were performed. The data were obtained using a proximity based, homogenous, real-time assay in order to measure the dissociation of peptides from HLA class I molecules. First, human recombinant HLA-B*08:01 and b2m were expressed in E. coli and purified in a series of liquid chromatography based steps (Ferre et al., 2003; Ostergaard et al., 2001). Then, the stability of a peptide-MHC complex (pMHC) was determined by measuring the amount of b2m associated with the MHC heavy chain over time at 37° C. (Harndahl et al., 2012). The stability of each pMHC, expressed as the half life of b2m associated with the respective heavy chain, was calculated by fitting the data to a one-phase dissociation equation.
For the molecule B1, the “mean half-life (T1/2) of peptide-MHC complex” value (from here on “mean half-life”) lay in the range of 6 to 10 h.

As for B2, the “mean half-life” value lay in the range of 2 to 4 h. Same read-out and setting: to B3 belongs 4 to 6 h; to B4, 2 to 4 h.

Consider B5, for which the “mean half-life” value was in the range of 6 to 10 h. The same measure, in the same setting: to B6 belongs 4 to 6 h.

The next experiment has as its target T2, HLA-A*01:01 (human).
T2 construct: also called peptide-receptive MHC molecules
As to the kind of experiment: UV-exchange b2m ELISA; exchange-yield grade. A digest of the protocol:
(§1)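 Absorbance at 450 nm after HRP anti-β2m detection gives the yield of UV-mediated ligand exchange, quantified against HLA-A*02:01/MLA-001 monomer standards. Only peptides that bind and stabilise peptide-receptive MHC keep the complex intact after UV cleavage of the conditional ligand.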
The molecule B7 displayed a peptide exchange yield of 20 to 50%. Consider B8, for which the peptide exchange yield fell in the range of 20 to 50%. In turn, B9 displayed a peptide exchange yield above 75%. B10 returned a peptide exchange yield of 20 to 50%. The same measure, in the same setting: the result for B11 reads 20 to 50%; that for B12, 20 to 50%; that for B13, 50 to 75%.

Turning to B14, the peptide exchange yield was in the range of 50 to 75%.

For B15, the peptide exchange yield fell in the range of 20 to 50%. Same read-out and setting: the result for B16 reads 50 to 75%. Same read-out and setting: to B17 belongs 50 to 75%.

A further experiment has as its target T3, HLA-A*24:02 (human).
T3 construct: also called peptide-receptive MHC molecules
Briefly: UV-exchange b2m ELISA; exchange-yield grade. A digest of the protocol:
as §1
For the molecule B18, the peptide exchange yield was above 75%. Same read-out and setting: to B19 belongs above 75%; to B20, above 75%; to B21, above 75%. The same measure, in the same setting: to B22 belongs above 75%; to B23, above 75%; to B24, above 75%.

Take B25: the peptide exchange yield was above 75%. On the same count and under the same terms, to B26 belongs above 75%. The molecule B27 displayed a peptide exchange yield of 50 to 75%. The same measure, in the same setting: to B28 belongs above 75%. Still for that read-out and setting: to B29 belongs above 75%; to B30, 50 to 75%. B31 returned a peptide exchange yield above 75%. In the case of B32, the peptide exchange yield is above 75%. In turn, B33 came in with a peptide exchange yield above 75%. On the same count and under the same terms, the result for B34 reads 50 to 75%. On the same count and under the same terms, the result for B35 reads above 75%. On the same count and under the same terms, to B36 belongs above 75%; to B37, above 75%. The molecule B38 registered a peptide exchange yield above 75%.

Source of the values: US20180222961A1 (IMMATICS BIOTECHNOLOGIES, published 2018).
